Assay results published in the DeepSol protein solubility set.

Experiment: soluble on expression in E. coli; label from the status in PepcDB or PDB records
With “MEVARGLEGVLFTESRMCYIDGQQGKLYYYGIPIQELAEKSSFEETTFLLLHGRLPRRQELEEFSAALARRRALPAHLLESFKRYPVSAHPMSFLRTAVSEFGMLDPTEGDISREALYEKGLDLIAKFATIVAANKRLKEGKEPIPPREDLSHAANFLYMANGVEPSPEQARLMDAALILHAEHGFNASTFTAIAAFSTETDLYSAITAAVASLKGPRHGGANEAVMRMIQEIGTPERAREWVREKLAKKERIMGMGHRVYKAFDPRAGVLEKLARLVAEKHGHSKEYQILKIVEEEAGKVLNPRGIYPNVDFYSGVVYSDLGFSLEFFTPIFAVARISGWVGHILEYQELDNRLLRPGAKYVGELDVPYVPLEARE” the “soluble on expression in E. coli” value was “soluble”. With “MGSDKIHHHHHHMEAQDHNNEQQVTEYQVMSYLRAHPQFFEHHTGLLAELYLPSPHGQGTVSLAERQQLAQRDRIRVLDAKLAQLMKYGEENDAIGEKVHRLSLGLLATERMEVLVSLLEHSLHEDFQVPYVSLRLWAKPRESGNGSLPIFASVDQELQRWAQGLATPYCGNRPGMPLQGWFGVEARPASFAVMALKAQQVFGVLALASDDDKRFYPDMGTLYLKRISELISAALLRHIIV” the “soluble on expression in E. coli” value was “not soluble”. With “MKKIYKVLYPVGFQIFEVQDDYVVALPFVEEKPLENLVNEQSQFFNFSEQKWEEAVTQDYTKKLNLLENLANGLEVSNSELKQANEKLTAKAESLAQINSKTMLTSLQNTREIDAIKEQIGGAK” the “soluble on expression in E. coli” value was “not soluble”. In the case of “MNNIDQLYTETKSMLSHIQNTPESDELLKQIEDFVATRSELIQEISLPLSEEERKQMKLILTWDQLIVKEMERLKQSIATELQQMKRKRVMHTTYLNPYNNITIDGTYYDKRKLEHHHHHH”, the “soluble on expression in E. coli” value is reported as “soluble”. For “MSGSYDEASEEITDSFWEVGNYKRTVKRIDDGHRLCNDLMSCVQERAKIEKAYAQQLTDWAKRWRQLIEKGPQYGSLERAWGAMMTEADKVSELHQEVKNSLLNEDLEKVKNWQKDAYHKQIMGGFKETKEAEDGFRKAQKPWAKKMKELEAAKKAYHLACKEERLAMTREMNSKTEQSVTPEQQKKLVDKVDKCRQDVQKTQEKYEKVLEDVGKTTPQYMEGMEQVFEQCQQFEEKRLVFLKEVLLDIKRHLNLAENSSYMHVYRELEQAIRGADAQEDLRWFRSTSGPGMPMNWPQFEEWNPDLPHTTAKKEKQPKKAEGATLSNATGAVESTSQAGDRGSVSSYDRGQTYATEWSDDESGNPFGGNEANGGANPFEDDAKGVRVRALYDYDGQEQDELSFKAGDELTKLGEEDEQGWCRGRLDSGQLGLYPANYVEAI”, the “soluble on expression in E. coli” value was “soluble”. With “RLKALRKEQGKALKKDKKLAEPKARVYVLDFDGDIKASATESMRHEITALLTLATDKDEVVLRLESGGGMVHSYGLASSQLARIRQAGIPLTVCIDKVAASGGYMMACIGNKIISAPFAILGSIGVVAQLPNVNRLLKKHDIDFEVLTAGEYKRTLTVFGENTEKGREKFQQDLDITHDLFKNFVASYRPQLSIDEVATGEVWLGMAAVDKLLVDELKTSDE” the “soluble on expression in E. coli” value was “not soluble”. With “SAFQKAASLLGAPIGHDFCVISLSDLMTPWDRIEKRIHAAATADFVTAVYNPKSEGRYWQLYRLKEIFLKERDPETPVGFVRQAGRKEETVTITTLQEFDPEQVDMFTVVLIGNSQSYHQEG” the “soluble on expression in E. coli” value was “soluble”. For “MCEFKDFRRNIPCFKEYDENSFIGKWYDDGVWDDEEYWKLENDLIEVRKKYPYPMDIPRDIVIGIGTIIDFLMVQNWKLFEIKASTWLPKSVKINERYERFRVMLRYIFTDLDVEDWKFFYFPIQHSKGRLRRKV”, the “soluble on expression in E. coli” value was “not soluble”. In the case of “MGSDKIHHHHHHMKTQFPSVWQDKLSQKHFSAFTTIQEAAFDPIKNGKSLLGISPTGSGKTLAYLWPSLLTLTPKKAQQLLILAPNTELAGQIFEVAKEWAQPLNLTAQLFLSGSSQKRQIERLKKGPEIIIGTPGRVFDLVKLKKIKMMNVNTIVLDEFDDLLGKSQIHFVKNIVKRVPRDHQMIYMSATNSIDRTFLADDTLEIDLSKQTVDTISHYYITVAKRERGELLRKFSNIPNFRGLVFFNRLSDLGANEERLQFSGASAVSLASDVNIKFRKVILEKFKNHELSLLLATDLVARGIDIELLETVINFDLPRDKDAYNHRAGRTGRMGKNGIVVTFISHPEELKKLKKFAHVSEVYLKNQILHKK”, the “soluble on expression in E. coli” value is reported as “not soluble”. In the case of “MQIDNISDEQVVIVRMSCYLKKDEIFKNIERYGYQSSDIKKISPPFPLNILPVPKPYYFYLYDTHLNQIYDLAWSCNDFLMFEIFILDRESIKYIDKDKLFKSRETLYSNFKSIKNQCKNYFFCGFDFDAPYFKSGVSQVADYNFVPDAFSLFFI”, the “soluble on expression in E. coli” value is reported as “not soluble”.
